B1: BCP-74 (AS07014VH11-mutated hIgG1 hinge-Keytruda) (bispecific antibody)
heavy: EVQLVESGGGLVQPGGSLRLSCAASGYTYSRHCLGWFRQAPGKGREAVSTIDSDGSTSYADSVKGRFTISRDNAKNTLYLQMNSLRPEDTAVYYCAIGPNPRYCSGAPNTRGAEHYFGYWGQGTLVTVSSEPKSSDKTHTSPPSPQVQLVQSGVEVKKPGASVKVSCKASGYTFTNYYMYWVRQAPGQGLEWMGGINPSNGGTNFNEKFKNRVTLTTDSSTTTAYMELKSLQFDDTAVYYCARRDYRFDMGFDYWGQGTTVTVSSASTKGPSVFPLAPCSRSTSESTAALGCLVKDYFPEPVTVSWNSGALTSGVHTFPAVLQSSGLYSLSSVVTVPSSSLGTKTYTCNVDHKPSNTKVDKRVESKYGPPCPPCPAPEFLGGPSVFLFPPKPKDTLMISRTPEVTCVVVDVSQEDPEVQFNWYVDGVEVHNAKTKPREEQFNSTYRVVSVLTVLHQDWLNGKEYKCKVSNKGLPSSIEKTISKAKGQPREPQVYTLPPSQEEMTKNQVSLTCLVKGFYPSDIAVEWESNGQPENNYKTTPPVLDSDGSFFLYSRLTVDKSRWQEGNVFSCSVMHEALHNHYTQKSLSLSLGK
light: EIVLTQSPATLSLSPGERATLSCRASKGVSTSGYSYLHWYQQKPGQAPRLLIYLASYLESGVPARFSGSGSGTDFTLTISSLEPEDFAVYYCQHSRDLPLTFGGGTKVEIKRTVAAPSVFIFPPSDEQLKSGTASVVCLLNNFYPREAKVQWKVDNALQSGNSQESVTEQDSKDSTYSLSSTLTLSKADYEKHKVYACEVTHQGLSSPVTKSFNRGEC
B2: BCP-75 (AS07189TKDVH11-mutated hIgG1 hinge-Keytruda) (bispecific antibody)
heavy: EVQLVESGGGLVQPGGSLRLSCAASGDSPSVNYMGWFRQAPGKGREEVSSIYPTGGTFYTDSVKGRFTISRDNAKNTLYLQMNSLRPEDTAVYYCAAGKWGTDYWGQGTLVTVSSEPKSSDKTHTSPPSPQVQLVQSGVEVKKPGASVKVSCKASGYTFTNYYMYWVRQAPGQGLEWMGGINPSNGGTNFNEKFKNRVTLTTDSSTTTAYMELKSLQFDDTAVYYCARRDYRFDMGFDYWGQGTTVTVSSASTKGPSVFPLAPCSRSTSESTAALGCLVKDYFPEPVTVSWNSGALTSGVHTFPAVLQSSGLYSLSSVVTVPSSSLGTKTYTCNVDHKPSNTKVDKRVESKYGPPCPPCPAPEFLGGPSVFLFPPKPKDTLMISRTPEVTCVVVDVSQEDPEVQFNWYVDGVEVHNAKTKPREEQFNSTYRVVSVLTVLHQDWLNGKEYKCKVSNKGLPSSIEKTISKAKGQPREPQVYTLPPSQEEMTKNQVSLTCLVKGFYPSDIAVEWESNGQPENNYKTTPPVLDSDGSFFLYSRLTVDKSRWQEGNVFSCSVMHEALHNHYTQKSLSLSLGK
light: B1 light
B3: BCP-73 (A34311VH11-mutated hIgG1 hinge-Keytruda) (bispecific antibody)
heavy: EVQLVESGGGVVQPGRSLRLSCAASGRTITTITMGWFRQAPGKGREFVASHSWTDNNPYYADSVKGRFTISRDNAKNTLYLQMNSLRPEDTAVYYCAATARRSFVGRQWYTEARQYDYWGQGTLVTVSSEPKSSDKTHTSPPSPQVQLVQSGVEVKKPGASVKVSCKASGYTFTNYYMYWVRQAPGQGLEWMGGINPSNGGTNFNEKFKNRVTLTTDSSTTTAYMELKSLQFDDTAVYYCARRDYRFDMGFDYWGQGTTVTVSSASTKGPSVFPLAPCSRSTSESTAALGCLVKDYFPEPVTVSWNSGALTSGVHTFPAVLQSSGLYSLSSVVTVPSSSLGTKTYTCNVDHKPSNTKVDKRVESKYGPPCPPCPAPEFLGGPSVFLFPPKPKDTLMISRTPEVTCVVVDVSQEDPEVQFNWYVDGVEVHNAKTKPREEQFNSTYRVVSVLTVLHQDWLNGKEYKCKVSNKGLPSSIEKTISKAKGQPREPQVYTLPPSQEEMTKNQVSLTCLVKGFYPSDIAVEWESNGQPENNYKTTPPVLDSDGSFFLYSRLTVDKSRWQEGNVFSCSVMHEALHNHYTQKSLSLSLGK
light: B1 light
B4: BCP-78 (A34311VH11-mutated hIgG1 hinge-Opdivo) (bispecific antibody)
heavy: EVQLVESGGGVVQPGRSLRLSCAASGRTITTITMGWFRQAPGKGREFVASHSWTDNNPYYADSVKGRFTISRDNAKNTLYLQMNSLRPEDTAVYYCAATARRSFVGRQWYTEARQYDYWGQGTLVTVSSEPKSSDKTHTSPPSPQVQLVESGGGVVQPGRSLRLDCKASGITFSNSGMHWVRQAPGKGLEWVAVIWYDGSKRYYADSVKGRFTISRDNSKNTLFLQMNSLRAEDTAVYYCATNDDYWGQGTLVTVSSASTKGPSVFPLAPCSRSTSESTAALGCLVKDYFPEPVTVSWNSGALTSGVHTFPAVLQSSGLYSLSSVVTVPSSSLGTKTYTCNVDHKPSNTKVDKRVESKYGPPCPPCPAPEFLGGPSVFLFPPKPKDTLMISRTPEVTCVVVDVSQEDPEVQFNWYVDGVEVHNAKTKPREEQFNSTYRVVSVLTVLHQDWLNGKEYKCKVSNKGLPSSIEKTISKAKGQPREPQVYTLPPSQEEMTKNQVSLTCLVKGFYPSDIAVEWESNGQPENNYKTTPPVLDSDGSFFLYSRLVDKSRWQEGNVFSCSVMHEALHNHYTQKSLSLSLGK
light: not shown
B5: A36922 HCAb (Fc fusion)
heavy: QVQLVESGGGLVQAGGSLRLSCAASGRLSRTFTMGWYRQAPGKQRDLVASITTSGSTNYADSVKGRFTISRDNAKNTVILQMNSLVPEDTAVYYCRFLSASTAAWGQGTQVTIST
B6: A36566 HCAb (Fc fusion)
heavy: EVQLVESGGGLVQVGDSLRLSCAASGRSFENYAIGWFRQAPGKEREFVATISWIPRTAYSTTYYADSVKGRFTISGDNSKNTVYLQMTSLKPEDTAVYYCAAGGATGPLALDSHYGYWGQGTQVTVSS
B7: BCP-2 (BCP-K311) (Keytruda-9GS-A34311) (bispecific antibody)
heavy: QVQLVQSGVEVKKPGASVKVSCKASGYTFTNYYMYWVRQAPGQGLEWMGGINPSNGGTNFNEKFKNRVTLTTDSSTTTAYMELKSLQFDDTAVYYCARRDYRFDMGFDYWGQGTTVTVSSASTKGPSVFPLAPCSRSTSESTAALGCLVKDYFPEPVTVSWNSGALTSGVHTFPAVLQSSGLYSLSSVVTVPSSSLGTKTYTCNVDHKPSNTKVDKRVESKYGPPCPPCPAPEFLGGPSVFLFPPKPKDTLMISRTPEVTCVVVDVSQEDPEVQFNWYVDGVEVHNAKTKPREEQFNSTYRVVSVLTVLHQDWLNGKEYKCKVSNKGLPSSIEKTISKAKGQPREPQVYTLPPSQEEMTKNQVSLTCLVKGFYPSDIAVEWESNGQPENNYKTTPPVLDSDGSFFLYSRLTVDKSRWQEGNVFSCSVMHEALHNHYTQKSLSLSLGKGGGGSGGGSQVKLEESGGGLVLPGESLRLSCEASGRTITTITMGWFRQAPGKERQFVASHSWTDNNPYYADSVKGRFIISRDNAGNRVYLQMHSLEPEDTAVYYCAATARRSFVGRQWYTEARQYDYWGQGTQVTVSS
light: B1 light
B8: BCP-311K (A34311-9GS-Keytruda) (bispecific antibody)
heavy: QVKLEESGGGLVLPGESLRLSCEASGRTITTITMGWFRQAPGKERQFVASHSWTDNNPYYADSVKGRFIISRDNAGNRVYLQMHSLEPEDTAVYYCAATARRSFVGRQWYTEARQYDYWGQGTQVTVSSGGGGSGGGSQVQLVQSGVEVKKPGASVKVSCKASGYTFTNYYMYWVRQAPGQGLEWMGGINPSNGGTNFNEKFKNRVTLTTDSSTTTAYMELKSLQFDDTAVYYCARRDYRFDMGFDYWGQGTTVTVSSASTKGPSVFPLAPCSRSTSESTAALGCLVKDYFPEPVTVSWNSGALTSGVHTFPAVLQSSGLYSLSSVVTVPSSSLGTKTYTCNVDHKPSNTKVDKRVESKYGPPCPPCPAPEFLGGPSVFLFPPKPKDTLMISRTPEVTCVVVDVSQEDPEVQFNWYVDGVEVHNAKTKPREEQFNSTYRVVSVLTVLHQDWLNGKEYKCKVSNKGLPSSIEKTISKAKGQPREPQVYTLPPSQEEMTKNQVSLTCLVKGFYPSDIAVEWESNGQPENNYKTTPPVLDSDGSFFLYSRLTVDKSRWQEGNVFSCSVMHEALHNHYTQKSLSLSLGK
light: B1 light
B9: AS07014 HCAb (Fc fusion)
heavy: QVHLVESGGGSVQAGGSLRLSCAASGYTYSRHCLGWFRQTPGKEREAVATIDSDGSTSYADSVKGRFTISSDNAKNTLYLQMNSLKPEDTAMYYCAIGPNPRYCSGAPNTRGAEHYFGYWAQGTQVTVSS
B10: AS07189 HCAb (Fc fusion)
heavy: QVQLVESGGGSVQAGGSLRLSCAASGDSPSVNYMGWFRRAPEKQREQREEVASIYPTGGTFYTDSVKGRFTISRDNAKNTLYLQMTALKPEDTAMYYCAAGKWGTDYWGQGTQVIVSS
B11: AS02640 sdAb (VHH)
VHH: QVQLVESGGGVVQPGRSLRLSCAASGRTITTITMGWFRQAPGKGLEFVASHSWTDNNPYYADSVKGRFIISRDNSKNRLYLQMNSLRAEDTAVYYCAATARRSFVGRQWYTEARQYDYWGQGTLVTVSS
B12: A34311 sdAb (VHH)
VHH: QVKLEESGGGLVLPGESLRLSCEASGRTITTITMGWFRQAPGKERQFVASHSWTDNNPYYADSVKGRFIISRDNAGNRVYLQMHSLEPEDTAVYYCAATARRSFVGRQWYTEARQYDYWGQGTQVTVSS

The term EC50 denotes the midpoint of the concentration-response curve. A lower EC50 goes with greater potency. As usually defined, the IC50 is the concentration at which inhibition is half-maximal. Low readings indicate greater potency, high ones weaker potency. For orientation: Kd means the concentration at which binding is half-saturated. High values mean a looser complex, low ones a tighter complex.

T2 sequence (P16410 37-161): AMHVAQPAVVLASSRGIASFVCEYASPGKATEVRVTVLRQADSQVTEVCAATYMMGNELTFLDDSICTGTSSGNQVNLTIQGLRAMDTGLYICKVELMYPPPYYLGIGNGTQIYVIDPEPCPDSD
T5 sequence (Q15116 25-167): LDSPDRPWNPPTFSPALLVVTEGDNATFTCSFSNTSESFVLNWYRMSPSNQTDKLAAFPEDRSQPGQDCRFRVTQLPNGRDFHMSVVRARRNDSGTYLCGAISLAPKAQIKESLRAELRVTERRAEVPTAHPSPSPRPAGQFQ

The target in one test is T1, human CTLA-4 expressed on CHO cells (UniProt P16410 37-223). The experiment in a line: FACS cell binding.
T1 sequence (P16410 37-223): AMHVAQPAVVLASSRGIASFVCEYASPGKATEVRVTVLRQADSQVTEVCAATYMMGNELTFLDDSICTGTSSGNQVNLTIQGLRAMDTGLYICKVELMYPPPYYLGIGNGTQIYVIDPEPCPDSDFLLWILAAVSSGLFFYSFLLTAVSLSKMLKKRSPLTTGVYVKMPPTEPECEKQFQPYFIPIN
Regarding B1, a half-maximal effect (EC50) was put at 3.9 nM.
Molecule B2 yielded an EC50 of 3 nM.
With B3, the EC50 worked out at 3 nM.
On the same count and under the same terms, the same measure for B4: 2.7 nM.

A further test concerns the target T2, biotin-labeled hCTLA-4/Fc protein (UniProt P16410 37-161, biotin label in the FACS competition assays (sites not given)). The experiment in a line: FACS ligand competition (B7-1 cells).
Molecule B5 registered an IC50 of 14.1 nM.
B6 returned a half-inhibitory concentration (IC50) of 6.6 nM.

For the next test, the target named is T3, CTLA-4-His protein (UniProt P16410 37-161). The experiment in a line: SPR. For orientation: Surface plasmon resonance follows binding to a sensor surface in real time, without labels.
T3 sequence (P16410 37-161): as the sequence (P16410 37-161) above
As to B7, the Kd turned out to be 28 nM.
On the same count and under the same terms, the same measure for B1: 2.6 nM; for B2: 4 nM.
Same read-out and setting: the same measure for B8: 13 nM; for B3: 7.5 nM.
On the same count and under the same terms, the same measure for B4: 6.6 nM.

A further test has as its target T2, biotin-labeled hCTLA-4/Fc protein. The experiment in a line: FACS ligand competition.
For B1, the IC50 was found to be 17.2 nM.
B2 registered an IC50 of 11.7 nM.
Still for that read-out and setting: the same measure for B3: 11.5 nM; for B4: 7.1 nM.

Another test concerns the target T3, CTLA-4-His protein. The experiment in a line: SPR. This is another data set of the same source.
On to B9, for which the Kd was found to be 1.1 nM.
As for B10, the Kd was found to be 3 nM.

For a further test, the target named is T4, human PD-1 expressed on CHO cells (human, UniProt Q15116 25-288). The experiment in a line: FACS cell binding.
T4 sequence (Q15116 25-288): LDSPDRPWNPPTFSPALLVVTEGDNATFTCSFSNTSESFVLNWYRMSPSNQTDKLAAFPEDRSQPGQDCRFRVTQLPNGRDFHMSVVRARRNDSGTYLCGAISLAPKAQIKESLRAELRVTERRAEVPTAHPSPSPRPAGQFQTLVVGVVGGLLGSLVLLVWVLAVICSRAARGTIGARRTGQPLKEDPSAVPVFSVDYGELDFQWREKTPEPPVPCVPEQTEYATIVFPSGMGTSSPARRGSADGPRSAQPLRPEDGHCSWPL
As to B1, the midpoint of the response, the EC50, lay at 1.6 nM.
The molecule B2 came in with an EC50 of 1.6 nM.
The same measure, in the same setting: the same measure for B3: 2.2 nM.
The same measure, in the same setting: the same measure for B4: 1.7 nM.

For a further test, the target named is hPD-1-Fc fusion protein having a biotin label (human, UniProt Q15116 25-167, biotin label (sites not given)). The experiment in a line: FACS ligand competition.
Sequence of hPD-1-Fc fusion protein having a biotin label (Q15116 25-167): as the sequence (Q15116 25-167) above
As to B1, the IC50 is 2.6 nM.
On the same count and under the same terms, the same measure for B2: 1.5 nM; for B3: 1.1 nM.
B4 showed an IC50 of 4.8 nM.

The next test addresses T4, human PD-1 expressed on CHO cells. The experiment in a line: FACS ligand competition (hPD-L1 Fc).
B7 had an IC50 of 16.5 nM.
On to B8, for which the IC50 came to 33.7 nM.

In the next test the target is T2, biotin-labeled hCTLA-4/Fc protein. The experiment in a line: FACS ligand competition (B7-1 cells). The source holds these as a separate data set.
With B8, the EC50 came to 41.9 nM.

A further test addresses T1, human CTLA-4 expressed on CHO cells. The experiment in a line: FACS cell binding. This is another data set of the same source.
In turn, B9 had an EC50 of 15.3 nM.
B10 returned an EC50 of 6.8 nM.

A further test concerns the target T5, PD-1-His protein (UniProt Q15116 25-167). The experiment in a line: SPR.
Take B7: the Kd stood at 7.63 nM.
Still for that read-out and setting: the same measure for B8: 11.1 nM.

A further test has as its target T3, CTLA-4-His protein. The experiment in a line: SPR. This is another data set of the same source.
B7 displayed a Kd of 28.4 nM.
For B8, the affinity, expressed as Kd, was 13 nM.

In a further test the target is T5, PD-1-His protein. The experiment in a line: SPR. The source holds these as a separate data set.
B1 came in with a Kd of 2.5 nM.
Take B2: binding was put at a Kd of 2.2 nM.
For the molecule B3, the Kd was found to be 7.5 nM.
Consider B4, for which the Kd came to 8.1 nM.

For a further test, the target named is T2, biotin-labeled hCTLA-4/Fc protein. The experiment in a line: FACS ligand competition. The source holds these as a separate data set.
B5 gave an IC50 of 14.1 nM.
As for B9, the IC50 came out at 12.3 nM.
Take B6: the 50% inhibitory concentration (IC50) was 6.6 nM.
On to B10, for which the IC50 came out at 11.9 nM.

The next test concerns the target CTLA-4/Fc. The experiment in a line: SPR.
Turning to B11, the Kd worked out at 2.95 nM.
Consider B12, for which the Kd is 4.96 nM.

For the origin of these results see patent US20190233519A1 (published 2019).
